Data reported in the DeepSol protein solubility set.

assay: soluble on expression in E. coli; label from the status in PepcDB or PDB records

Sequence | soluble on expression in E. coli
MSLRLRTLKDLDQAALLLARACALLLDDNTDVPDLRQVIFKCVPKNRLAESVSKVNELARPQNNNFHDEMVEQYGRVKRFLPAVLRDLHFRAAPAGEHVLAAIHYLAELNGSKKRILDDAPEHIITGPWKRLVYDAEGRIQRAGYSLCLLERLQDALRRRDIWLENSDRWGDPREKLLQGEEWQTQRIPVCRALGHPVDGRKGVQQLAIQLDETWKAVASRFEKNAEVHICNEGKYPSLTISCLEKQEEPPSLLRLNNRIKQLLPPVDLTELLLEIDAQTGFTHEFAHVSESGARAQDLHISLCAVLMAEACNIGLEPLIKHNIPALTRHRLSWVKQNYLRAETLVSANARLVDFQSTLELAGRWGGGEVASADGMRFVTPVKTINSGSNRKYFGSGRGITWYNFVSDQYSGFHGIVVPGTLRDSIFVLEGLLEQQTGLNPVEIMTDTAGSSDIIFGLFWLLGYQFSPRLADAGEAVFWRVNKSANYGVLDKLARGYADLSKAESQWDEMMRTAGSLKLGTIHASELIRSLLKSSRPSGLAQAIMEVGRVNKTLYLLNYIDDEDYRRRILTQLNRGEGRHAVARAICYGQRGEIRKRYREGQEDQLGALGLVTNAVVLWNTLYMEEALSWMRRNGEEIIDEDIARLSPLMHGHINMLGHYTFTLPEDILKGELRALNEGHHHHHH | not soluble
MGSDKIHHHHHHGQNVHPNLPWIDISGQRERQVTIAPGRPDLYNGHPTTVMMDDHKTILCTWSYGHGGKASFIAESKDAGLTWKNGKTPADWQTMSNCPSIYKLTDKQGKERVFVFSAWPDMPMTYSEDGGKSWSPVRSLNKPCVMAFSSIVKLKNGDYLGLYHRGLNDRDRPPLTLWQSVSHDGGLTWSESVKVGEMEGRSPCEPCVFRAPDGKRLVCVARENNRVGNSLMMFSDDEGTTWSPLQKTPWGLTGDRHVIKFTPDGRMIAVFRDMAPNSPTKGHFVAWVGNYKDLLEGTSGQYKIKLLHSYAGSDCGYPGLEILPDGTIVAITYVKMRPGPEQHSIVGVRFKLEETDKMLY | not soluble
MANVVAEGAYPYCRLTDQPLSVDEVLAAVSGPEQGGIVIFVGNVRDHNAGHDVTRLFYEAYPPMVIRTLMSIIGRCEDKAEGVRVAVAHRTGELQIGDAAVVIGASAPHRAEAFDAARMCIELLKQEVPIWKKEFSSTGAEWVGDRP | soluble
MSLESVQNYEAKSAHAHQAFFLKFEELKEVSKEQPRLEAEYPANTTKNYDHSRVRLTQLEGEPHSDYINANLVPGYTRPQEFIASQGPLKKTLENFWRLVREQQVRIIIMPTISMENGRVLCEHYWLTDSTPDTHGHITIHLLAEEPEDEWTKREFQLQHLLRGCPCGVGMGRTGTFVALSRLLQQLEEEQMVDVFHAVYALRMHQPLMIQTLSQYVFLHSCLLNKILEGPFNISESWPISVTDLPQACAKRAASANAGFLKEYEAIKDEAGFSAPPPGYEQDSPVSYDRSQGQFSPVEESPPDDMPEAWLFPGGPSGRDHTVLTGPAGPKELWELVWQHRAHVLVSLCPPNVMEKGESRKEREVQRLQFPYLEPGHELPATTLLPFLAAVGQCCSRGNNKKPGTLLSHSKCCWTMVSCSKGATQLGTFLAMEQLLQQAGSECTVDIFNVALQQSQACGLMTPTLITQQCLLLSDCTAPPPTEGHHHHHH | not soluble
WDPPYLQIAFDNPNLEFVLSAISEIPKSDHVIIEAGTPLIKRYGTDVISKIRQVRPDAFIVADLKTLDTGNLEARMVADAAGDAIVVSALAPISTIDKLIEEAHKTGIYAVMDTLNQQDPISVLKQLKVMPDVIELHRGIDIEGTEHAWGNIGEIKKIAPKALVAVAGGVRLDKVPVALSQGADILVVGRAITNAKDVREMAEQFINSLNK | soluble
MQRVDLNSDLGESFGAYTIGQDDRVLEHVTSANIACGYHAGDHNVMARTVKLAADKGMGIGAHPGFPDLLGFGRRNIQTDHKDIYNFIVYQVAALNGFCQLHRVRMQHVKPHGALYNMAAKDRVIAEAIAEAIYDIDPSLILFGLSGSELIKAGKKLGLTVANEVFADRTYQPDGTLTPRSEANALIKESERATEQVIQMVKESKVIAVDGSHIPIEADTICVHGDSPTALSFIERLHAQLQVEGVTVTKVSDFLFKLEHHHHHH | not soluble
VDYTLRRRSLLAEVYSGRTGVSEVCDANPYLLRAAKFHGKPSRVICPICRKEQLTLVSWVFGEHLGAVSGSARTAEELILLATRFSEFAVHVVEVCRTCSWNHLVKSYVLGAARPARPPRGSGGTRTARNGARTASE | not soluble
MAHHHHHHMLSQNVAKTTVPSYYMIRTNLPQRKPQNQWEGVYYFGGITKRQRHLILLQRKREREARMRAFSASCSNLLRLLEGDTQEQQQAKTQTIQLSSPHGPFDLAIRLAQHGLYQQASRIVDELHQQRALRMSHYGLLIDALSAPCLGQRILYGSAQCDPALTYKLLGDENGEERAQEAHRWFDMAFALLTTECRMSGSEHRLPQATAAATHLVNALMRALLTCGYTHVSAVPDAVYDRMGLMGISPTISTYELVMLALSLQGNMKEAESVFSFLRRHHNEHVTIGSFNALLLGHRECRQFDRCDAIWQELVDRRWPRASTLTAELYLRSIVDHSYTPTSGPLQRFGNINVVEKKKIPLVLAQMDDLGIPRAHLSRPLMDEVEDALRKFHIYKSRYYEWGRAVKQFNFIEFRRRNGWMYDLHLMKNTTKQVGPLRDFNQPDATQAPVATVEIPAFFNERPAWEQPPLEETLYVTESRERYDDVRSGDIYEDRTRSLHDRSPTWMNEVPETRYDHLYGVNHPDIAKIGIRRHLNAEYVNRKEVVERDAALMKKNLSTGRRLRRKVESSRTHRNAGSMSGAAPASASR | not soluble
MGVSRVLHVEGGTPLKGELRVYPAKNAALPILAASLLTPEPITLVEVPRLRDVEVMLELLAHLGTQYAWEGRTLHLQTPEIKSTHAPYELVGQMRASFIVWGALLARAGEGHVSMPGGCAFGFRPVDQHIKALEALGAEVWEEDGTFHARRTRPLSGRVVFDLPTVGGTEQAMLAVALGGEATLVQAAVEPEVVDLGHFLALLGAEVEGLGSPIVRIKGAPRLKGGTYRIIPDRIEAGTYLLAAAATRGSLTLEGVRPDHLDALLDKLWRSGHRLEVGEDWIRFRATPDPAPFHVEAREYPGFPTDLQPIATAYLATVPGQSTVVDRIYPDRFTHVGELARMGAELYLRDRILTVQGRRLHGAQVKALDIRAGGALVVAALSAEGASEIEGVYFLERGYEHLTERLQALGARVHLRESPVALAAD | soluble
MNKQLTTIGIMASLFATSSFATDWTQIEKEAQGQTVYFHAWGGSQEINHYLQWANKELQSKYQVTLKHVKVSDISETIPRLIAEKAADKNTNGSVDMVWINGENFKSMKDNQLLFGPFTENLPSWKYVDKMLPIDVDFSEPTDGLEAPWGVGQLVFIHDSENLTNPPHSFAEMLSYAQKKPNSLSYPRPPEFHGTSVLKSMLIELTNNNPALQKPVSESDFNAVTAPLWDYLEKFHKVAWRGGKQFPAGTSETIQLLDDGQLDLAVTFNPNAVYSAQANGNLANTTKAYAMDSGALSNIHFLAIPWNAKASAGAQVAINFLLSPEAQSRKGDLNVWGDPSVLSSKYLTGSAKNTQQFKSVSEPHPSWQAAIEKEWLKRFGS | soluble
TSMIIHRDLEVAIRQDNIIPYFQPIVNAKSGEIIGFEALARWPHPTLGIISPLIFIPLAEQGKLIVELGESILNQSCDFIGKLNTKRHSQGLPPLTVHVNLSAQHFYHSRLISFLQSMIEEHNISAGHLVLEITESMLMGGETESIHCINEIKQLGVQLALDDFGTGYASFSSVCNFPLDIVKLDKSYVDEIETNDRAKTLVRNIANMSQELGLTIVAEGVETASQVRKLKVWNIDELQGFYFYKPMTREDAFAQFSGLPHC | not soluble
MSLSSPQFEENSFECPVEIGISNMCGKRDSMQDTSVVITNFLGIGFHLLSLFDGHSGIYSSCFCASQFPNCFANILSKNPQQSIEDALIHSFKEMNQKINEYKFNDGTAANVVLITPQRYFIANVGDSRCILVKKDSIIILNEDHTINNPDEVQRIRKLNGFIDHSKVNGEIVLTRTLGDIQCSSVCSCIPQITCHERGIDDICIVLCCDGVFDVLSNELVGEICRKKSNESASVLSSLIRDIAYNNGCKDNISCIVCKLMSEGHHHHHH | soluble
